Assay results from publication PMC8894350, “Mechanism of cooperative N-glycan processing by the multi-modular endoglycosidase EndoE” (Nature Communications, 2022).

Assays:
[1] = test system: CC(=O)N[C@H]1[C@H](Oc2ccc([N+](=O)[O-])cc2)O[C@H](CO)[C@@H](O)[C@@H]1O; test: purified protein; settings: PCTP buffer pH 8, 5 nM enzyme, 0.09-12 mM substrate, GH20 active site within full-length EndoE
[2] = test system: CC(=O)N[C@H]1[C@H](Oc2ccc([N+](=O)[O-])cc2)O[C@H](CO)[C@@H](O)[C@@H]1O; test: purified protein; type: biochemical, Enterococcus faecalis; settings: PCTP buffer pH 8, 5 nM enzyme, 0.09-12 mM substrate, isolated GH20 domain
EndoE-GH18L = molecular target: T1, EndoE-GH18L (Enterococcus faecalis, UniProt Q6U890); test: X-ray crystal structure of the complex, […] Å; type: binding; settings: co-crystallised with 2.5 mM Man5GlcNAc; pH 6.5 Bis-Tris propane; GH18 active-site groove
T1 construct: gene ndoE; GH18 domain plus linker region (3HB-1, 3HB-2), residues 56-486; GST tag cut by TEV (GSG linker); E. coli BL21(DE3)
T1 sequence (Q6U890 entry or part of it): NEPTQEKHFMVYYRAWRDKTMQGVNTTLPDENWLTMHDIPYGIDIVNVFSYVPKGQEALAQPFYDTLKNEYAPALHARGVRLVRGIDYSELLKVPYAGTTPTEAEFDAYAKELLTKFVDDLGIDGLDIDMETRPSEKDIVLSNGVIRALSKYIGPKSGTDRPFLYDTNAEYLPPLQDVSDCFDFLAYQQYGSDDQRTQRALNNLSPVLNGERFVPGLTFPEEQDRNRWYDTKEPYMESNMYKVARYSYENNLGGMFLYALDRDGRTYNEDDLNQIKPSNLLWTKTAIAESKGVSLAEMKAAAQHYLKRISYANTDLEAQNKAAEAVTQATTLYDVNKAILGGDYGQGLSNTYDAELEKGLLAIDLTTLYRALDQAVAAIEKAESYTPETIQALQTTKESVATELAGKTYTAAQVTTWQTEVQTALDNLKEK

EndoE (Enterococcus faecalis) gave a Km [1] of 450 µM and a kcat [1] of 41 s⁻¹.

With EndoE-GH20 (Enterococcus faecalis) the Km [2] was 970 µM and the kcat [2] was 86 s⁻¹.

In the case of CC(=O)N[C@H]1C(O)O[C@H](CO)[C@@H](O[C@@H]2O[C@H](CO[C@H]3O[C@H](CO[C@H]4O[C@H](CO)[C@@H](O)[C@H](O)[C@@H]4O)[C@@H](O)[C@H](O[C@H]4O[C@H](CO)[C@@H](O)[C@H](O)[C@@H]4O)[C@@H]3O)[C@@H](O)[C@H](O[C@H]3O[C@H](CO)[C@@H](O)[C@H](O)[C@@H]3O)[C@@H]2O)[C@@H]1O (some centres unmarked) [Man5, Man5GlcNAc], the “X-ray crystal structure of the complex, 2.6 Å” value (EndoE-GH18L) was “crystal structure of EndoE-GH18L in complex with the Man5GlcNAc (Man5) product”.
